Results reported in article PMC11569188 (2024).

Target: Grb2 SH2 domain (BAP-tagged) (UniProt P62993 60-152, biotin on the BAP tag (in vivo biotinylation))
Assay: FP

Sequence of Grb2 SH2 domain (BAP-tagged) (P62993 60-152): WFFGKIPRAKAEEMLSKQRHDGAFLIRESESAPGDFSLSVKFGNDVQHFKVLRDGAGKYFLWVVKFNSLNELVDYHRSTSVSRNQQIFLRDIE

B1: Affimer Grb2 A4 (designed binder)
chain: MASNSLEIEELARFAVDEHNKKENALLEFVRVVKAKEQHVLWENAGPTMYYLTLEAKDGGKKKLYEAKVWVKHTRYEYFVYNFKELQEFKPVGDAAAAHHHHHHHH
  IC50: 770 nM
